Values joined by “and” are separate entries in the source; they are usually repeats but may differ in a detail not shown here. Equal entries are not always repeated.
Key:
人CD123 (在细胞上表达) [1] = target: T1, 人CD123 (在细胞上表达) (human, UniProt P26951 19-378); assay: flow cytometry on the C1R-CD1d cells expressing CD123 used for immunisation
T1 construct: Used for all cells that carry CD123; the cell is named under assay or readout; Expression construct for 293F bought from Invivogen; also called 白介素-3受体α链; 瞬时表达CD123的293F细胞

[2] = target: T2, 重组人CD123抗原(细胞外结构域，Sino Biological) (human, UniProt P26951 19-305); assay: phage ELISA on captured recombinant antigen
T2 construct: Bought; also called 重组的纯化CD123抗原
T2 sequence: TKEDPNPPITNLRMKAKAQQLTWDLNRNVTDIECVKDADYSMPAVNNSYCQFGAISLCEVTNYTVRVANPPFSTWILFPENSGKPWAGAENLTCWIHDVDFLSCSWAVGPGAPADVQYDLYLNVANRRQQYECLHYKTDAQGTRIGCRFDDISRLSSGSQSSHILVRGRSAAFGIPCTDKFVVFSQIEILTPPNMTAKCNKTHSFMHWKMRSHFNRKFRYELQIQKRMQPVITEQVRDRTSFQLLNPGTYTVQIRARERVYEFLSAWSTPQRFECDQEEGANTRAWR

人CD123 (在细胞上表达) [3] = target: T1, 人CD123 (在细胞上表达); assay: cell-based or functional assay

B1: 抗CD123 VHH 1A3 (VHH)
VHH: EVQLVESGGGLVQAGGSLRLSCAASGRAINTYAMAWFRQAPGKERDFVATISYSGGTTDYAGSVKGRFTISRDNAENTVYLQMNSLKPEDTAVYYCAARDRYNPLARNYNYWGQGTQVTVSS
notes: also called 1A3抗体
binding result (人CD123 (在细胞上表达) [1]): binds
binding result [2]: binds

B2: 1D2-5C8var1(Y105F)-Fc (bispecific antibody, V domains shown)
V domain 1: EVQLLESGGGSVQPGGSLRLSCAASGRPFSNYAMSWFRQAPGKEREFVSAISWSGGSTSYADSVKGRFTISRDNSKNTLYLQMNSLRAEDTAVYYCAAQFSGADFGFGRLGIRGYEYDYWGQGTQVTVSS
V domain 2: EVQLVESGGGLVQAGGSLRLSCAASGRTASSYVMGWFRQAPGKEREFVAVINWNGDSTYYTDSVKGRFAISRDNAKNTVYLQMNSLKPEDTAVYYCAADTRREWYRDGYWGPPARYEYDYRGQGTQVTVSS
EC50 of T细胞介导的THP-1靶细胞的细胞毒性 (24小时) (人CD123 (在细胞上表达) [3]): 1 pM and 3 pM
THP-1裂解的EC50 (2号供体) (人CD123 (在细胞上表达) [3]): 1 pM
THP-1靶细胞裂解的效力(EC50), THP-1:pDC:Vγ9Vδ2T 1:1:2共培养 (人CD123 (在细胞上表达) [3]): ~1 pM
pDC裂解的EC50 (2号供体) (人CD123 (在细胞上表达) [3]): 11 pM
pDC裂解的EC50相对于THP-1裂解的EC50 (人CD123 (在细胞上表达) [3]): ~10 fold
